Literature values in paper PMC4310935.

Biological target: GLP-1 receptor (Mus musculus) (UniProt O35659)
UniProt O35659, sequence (O35659 22-463): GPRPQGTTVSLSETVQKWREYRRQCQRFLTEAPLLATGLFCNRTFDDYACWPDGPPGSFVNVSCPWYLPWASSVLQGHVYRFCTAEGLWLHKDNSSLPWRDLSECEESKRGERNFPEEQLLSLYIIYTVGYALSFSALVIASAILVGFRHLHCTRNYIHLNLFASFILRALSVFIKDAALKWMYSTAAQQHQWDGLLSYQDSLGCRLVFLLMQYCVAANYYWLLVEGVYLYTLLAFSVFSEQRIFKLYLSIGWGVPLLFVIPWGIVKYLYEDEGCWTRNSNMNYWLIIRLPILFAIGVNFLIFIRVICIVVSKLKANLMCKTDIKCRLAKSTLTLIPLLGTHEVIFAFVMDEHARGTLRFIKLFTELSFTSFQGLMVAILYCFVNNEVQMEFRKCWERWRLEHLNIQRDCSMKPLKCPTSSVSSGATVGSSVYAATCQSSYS

GLP-1, sequence (P55095 98-127): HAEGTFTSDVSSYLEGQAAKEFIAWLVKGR

## GLP-1 (from UniProt P55095)
  Kd: 500 pM
